Results: the DeepSol protein solubility set

Test: soluble on expression in E. coli; label from the status in PepcDB or PDB records

Sequence	soluble on expression in E. coli
MGSDKIHHHHHHMTVIDLSALDPPDLVETLDFEAAYQYKLQHFKSIYPDWTAALESDPVVKLIELAAYDEVRFRARVNDAGRAVLLAYSTGADLEHLAVLWNLQRETVDPGDPEAHPPVPATRERDERLRLRTQMGIERSSTAGPFGAYRSLAMDASPDVADVRVDRPEAGVVRVVVKSYSNGGVASAALLDTVRRALSPEDRRPLNDSLLVVAARPVNYAIVADVYIGRGPDPGVVLAARRQDLDIAVAAGEALRVGMPRSAVTGALHPKASGVVRVDLKLPAADVVCAIDQFARCTSIVLNPKVADDD	not soluble
MGQFYCLHCDRYFSNVSVRDDHFKTKKHKKRVNMMMGQAPHSQLDADLAGGMGMPDNGPKLMSNLVFTELRKPETEDLPGMGQFNCLLCHRNFSNASVMDYHFKTKKHKKRVKKIERPAPHSQLDADLAGGMGMPDNGPKLMSA	not soluble
MMKTRGFELITDYTDENLLPKRETAHAAGYDLKVAERTEISAGAIVLVPTGVKAYMQVGEVLYLFDRSSNPRKKGLVLINSVGVIDGDYYNNPNNEGHIFAQMKNMTDQTVVLEAGERVVQGVFMPFLLIDGDKATGTRTGGFGSTGG	soluble
MGSDKIHHHHHHMTHYKNNIDEAATLINSEGSAWNAINPESVARMRLQNRFKTGLDIAKYTAKIMREDMDNYDKDTSQYTQSLGCWHGFIAQQKMISIKKHLLTTKRRYLYLSGWMVAALRSEFGPLPDQSMHEKTSVAALIKELYTFLRQADARELGGLFRELDSAKESDKAAIQHKIENFETHVVPIIADIDAGFGNEEATYLMAKQMIEAGACCIQLENQVSDVKQCGHQDGKVTVPHVEFLAKINAVRYAFLELGIDDGVIVARTDSLGAGLTQKIAVTKEAGDLGDLYNSFLEVEAVDAAKLENGDVVFKQGGKLVKPARLPNGLFKFRAGTGEERCVLDCITSLQNGADLLWIETEKPHVSQIGGMVNEIRKVVPNAKLVYNNSPSFNWTLNFRQQVFDAMQKAGQDVSAYDRAQLMSVDYDGTELAIQADEKIRTFQSDSAREAGIFHHLITLPTYHTAALSTDNLAKEYFGDQGMLGYVANVQRKEIRQGIACVKHQNMAGSDIGDAHKEYFSGDQALKASGKDNTMNQF	not soluble
MGSDKIHHHHHHMGGAALPDNGWPADRIDTESAHSARIYDYIIGGKDYYPADKEAGDAMSREWPALPVHMRANRDWMNRAVAHLAKEAGIRQFLDIGTGIPTSPNLHEIAQSVAPESRVVYVDNDPIVLTLSQGLLASTPEGRTAYVEADMLDPASILDAPELRDTLDLTRPVALTVIAIVHFVLDEDDAVGIVRRLLEPLPSGSYLAMSIGTAEFAPQEVGRVAREYAARNMPMRLRTHAEAEEFFEGLELVEPGIVQVHKWHPDAATADGIRDEDIAMYGAVARKP	not soluble
MGSGRTWRELKEVFPKLARAKYYTRARYGYCRGYEAVDFVESVRWYYYVLSGLVVLDRPEAKHLEHHHHHH	not soluble
GASKAFYSAGDKLFQPGDDAVASMQTYSVAQFLQPFTLNPAKASSDYLGKWVKVRGVIVDIRRKSGIAGSYYFIVTMRDEQNKTDKRLTFNFGSHNSADVEALSNGSVATIVGQVHQVQDSTIPTLQNPKVVK	soluble
MGSDKIHHHHHHMTRLCRTFQTAPAAIPNDNSAKFLVSGLTSKGFQAPDWLVPDIEDGTAPSMKDEAVDNIIEHIPDHADDFAGDILPRVEWAYDDANARERGIEQVTRLAEAVGEELDGFVFPKVGRLDDVRDAAGVIADAERDAGLPEGTLEMAIILETAPGRSDLREICQYATDSRLSGLVFGPVDYTAELGGRTLDGERPRWDGLLEALSNETSAADIVAIGGPFDQLFHERAGVTYYNAEGYADQVAYEATIGIDGSWSLHPKQTEQANRIHMPTVEEMERDLHKIESFNEAKREGTGAVVVDGQMVDEATYKNFANTVKTVRAIDETHPAQTEAYYDDDLLARARDVELIFG	not soluble
MKVAAKKLATSRMRKDRAAAASPSSDIENSENPSSLASHSSSSGRMTPSKNTRSRKGVSVKDVSNHKITEFFQVRRSNRKTSKQISDEAKHALRDTVLKGTNERLLEVYKDVVKGRGIRTKVNFEKGDFVVEYRGVMMEYSEAKVIEEQYSNDEEIGSYMYFFEHNNKKWCIDATKESPWKGRLINHSVLRPNLKTKVVEIDGSHHLILVARRQIAQGEELLYDYGDRSAETIAKNPWLVNT	not soluble
MSLNAPQWLGAEGEKIAARHLAAKGYRIVARNYRFHRNEIDIIAFDGEALCFIEVKTRASLGKGHPAESVTRSKQKEIARAAAGYLASLDDPWITCRFDVIAVLALSIDERSIRKYEIEHIKAAFMVGDKGEGHHHHHH	soluble
